Source: patent US20250043302A1, “MUTATED HYDROXYPHENYLPYRUVATE DIOXYGENASE POLYPEPTIDE, AND CODING GENE AND USE THEREOF” (BEIJING DABEINONG BIOTECHNOLOGY CO., LTD., priority 2021, published 2025)

Assays:
Assay type in all cases: in vivo
[1] = tested on: Arabidopsis thaliana T1 plants; test: Isoxaflutole tolerance of transgenic Arabidopsis thaliana T1 plants (spray, bleached leaf area grade, damage score); parameters: Scores (pesticide damage): scale not given here; details: spray, Arabidopsis thaliana T1 plants; for Classification and statistics of the grade of pesticide damage: Grade 0 (number of plants) / Classification and statistics of the grade of pesticide damage: Grade 1 (number of plants) / Classification and statistics of the grade of pesticide damage: Grade 2 (number of plants) / Classification and statistics of the grade of pesticide damage: Grade 3 (number of plants): 16 plants
Procedure, shortened: (§1)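 Damage graded 0–3 from the proportion of bleached leaf area 7 days after spraying. Plants were glufosinate-selected T1 lines, 18 days after sowing, plus vector and wild-type controls. Rates: mesotrione 52.5–420, isoxaflutole 35–280, topramezone 25–200 g ai/ha, with water (0×).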

[2] = tested on: Arabidopsis thaliana T1 plants; test: Mesotrione tolerance of transgenic Arabidopsis thaliana T1 plants (spray, bleached leaf area grade, damage score); parameters: Scores: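 damage score 0-100 computed as Σ(N×S)/(T×M)×100 over grades 0-3 with higher meaning more damage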; details: Arabidopsis thaliana T1 plants; for Grade 0 (classification and statistics of the grade of pesticide damage; number of plants) / Grade 1 (classification and statistics of the grade of pesticide damage; number of plants) / Grade 2 (classification and statistics of the grade of pesticide damage; number of plants) / Grade 3 (classification and statistics of the grade of pesticide damage; number of plants): 16 plants
Procedure, shortened: as §1

[3] = tested on: Arabidopsis thaliana T1 plants; test: Topramezone tolerance of transgenic Arabidopsis thaliana T1 plants (spray, bleached leaf area grade, damage score); details: 7 DAT, Table 4; for Classification and statistics of the grade of pesticide damage: Grade 0 / Classification and statistics of the grade of pesticide damage: Grade 1 / Classification and statistics of the grade of pesticide damage: Grade 2 / Classification and statistics of the grade of pesticide damage: Grade 3: number of plants; for Scores: pesticide damage score 0-100
Procedure, shortened: as §1

[4] = isoxaflutole 35 g ai/ha (0.5x field concentration)
[5] = isoxaflutole 70 g ai/ha (1x field concentration)

B1: SbHPPD-02: nucleotide sequence encoding wild-type Sorghum bicolor HPPD; vector DBN11758 (nucleic acid)
DNA: ATGCCGCCCACTCCAACAACTGCTGCTGCGACGGGAGCAGCTGTCGCCGCTGCTTCTGCTGAGCAGGCTGCCTTCAGGCTCGTCGGGCACAGAAATTTTGTTCGTGTAAATCCAAGGAGTGATAGGTTCCACACCTTGGCTTTTCACCACGTGGAGTTGTGGTGTGCTGATGCAGCCTCGGCAGCGGGGCGCTTCTCGTTTGGTCTCGGTGCTCCGCTCGCCGCAAGATCTGATCTTAGCACTGGAAACACAGCGCATGCCTCCCTGCTCCTGCGCTCTGGCGCGCTGGCGTTCCTCTTCACGGCGCCATATGCTCACGGCGCCGACGCCGCCACCGCGTCATTGCCGTCTTTTAGTGCAGCCGAAGCAAGAAGATTTGCAGCAGACCACGGCCTCGCCGTAAGGGCCGTGGCCTTACGTGTCGCCGATGCCGAAGATGCTTTCCGCGCCTCTGTAGCAGCTGGAGCAAGGCCAGCATTTGAACCTGTTGAATTGGGGTTAGGATTCCGTCTTGCAGAAGTTGAGCTTTATGGCGACGTTGTTTTGAGATACGTTTCATATCCTGATGACGCTGACGCTAGCTTCTTGCCTGGTTTTGTGGGGGTGACATCACCTGGGGCAGCAGATTATGGTCTCAGGCGGTTTGATCATATTGTTGGAAACGTTCCTGAACTCGCGCCGGCGGCAGCCTACTTCGCCGGTTTCACTGGGTTTCATGAATTTGCTGAATTCACAGCCGAGGATGTCGGCACCACCGAGAGTGGACTGAACTCCATGGTGCTGGCCAACAATGCAGAGAATGTCCTTCTTCCCTTGAATGAACCAGTTCATGGAACAAAAAGGCGTTCCCAAATACAAACATACCTCGACCATCATGGTGGACCAGGCGTTCAGCATATGGCTCTCGCTAGTGACGATGTTCTACGAACCCTGCGAGAGATGCAGGCGCGGTCTGCAATGGGAGGATTTGAGTTCATGGCACCTCCTGCCCCTGAATATTATGATGGTGTTCGGAGAAGGGCAGGTGATGTGCTAACTGAAGCTCAAATCAAGGAGTGCCAGGAGCTTGGCGTGCTGGTCGATCGGGATGATCAAGGTGTGCTTCTGCAGATTTTTACTAAACCAGTGGGTGACCGCCCCACGCTGTTCCTAGAGATCATCCAGAGAATAGGGTGCATGGAGAAGGACGAAAAAGGACAAGAGTACCAGAAGGGAGGTTGTGGCGGCTTTGGAAAAGGGAACTTCTCCCAATTATTCAAGTCAATTGAAGACTATGAAAAGAGTTTGGAGGCTAAGCAAGCTGCAGCCGCCCAGGGCAGCTGA
modifications: SbHPPD-02 Nucleotide Sequence
notes: vector DBN11758
In the case of B1, the Resistance evaluation [1, 4] is reported as “Non-resistant”, the “Scores (pesticide damage)” value [1, 4] is reported as 100 and the “Classification and statistics of the grade of pesticide damage: Grade 0 (number of plants)” value [1, 4] is reported as 0. For the same molecule, the “Classification and statistics of the grade of pesticide damage: Grade 1 (number of plants)” value [1, 4] was 0, the “Classification and statistics of the grade of pesticide damage: Grade 2 (number of plants)” value [1, 4] was 0 and the “Classification and statistics of the grade of pesticide damage: Grade 3 (number of plants)” value [1, 4] was 16. The Resistance evaluation [1, 5] was “Non-resistant”, the “Scores (pesticide damage)” value [1, 5] was 100 and the “Classification and statistics of the grade of pesticide damage: Grade 0 (number of plants)” value [1, 5] was 0. The “Classification and statistics of the grade of pesticide damage: Grade 1 (number of plants)” value [1, 5] was 0, the “Classification and statistics of the grade of pesticide damage: Grade 2 (number of plants)” value [1, 5] was 0 and the “Classification and statistics of the grade of pesticide damage: Grade 3 (number of plants)” value [1, 5] was 16. For the same molecule, the Resistance evaluation ([2]; mesotrione 52.5 g ai/ha) was “Non-resistant”, the Scores ([2]; mesotrione 52.5 g ai/ha) was 100 and the “Grade 0 (classification and statistics of the grade of pesticide damage; number of plants)” value ([2]; mesotrione 52.5 g ai/ha) was 0. For the same molecule, the “Grade 1 (classification and statistics of the grade of pesticide damage; number of plants)” value ([2]; mesotrione 52.5 g ai/ha) was 0, the “Grade 2 (classification and statistics of the grade of pesticide damage; number of plants)” value ([2]; mesotrione 52.5 g ai/ha) was 0 and the “Grade 3 (classification and statistics of the grade of pesticide damage; number of plants)” value ([2]; mesotrione 52.5 g ai/ha) was 16. The Resistance evaluation ([2]; mesotrione 105 g ai/ha) was “Non-resistant”, the Scores ([2]; mesotrione 105 g ai/ha) was 100 and the “Grade 0 (classification and statistics of the grade of pesticide damage; number of plants)” value ([2]; mesotrione 105 g ai/ha) was 0. For the same molecule, the “Grade 1 (classification and statistics of the grade of pesticide damage; number of plants)” value ([2]; mesotrione 105 g ai/ha) was 0, the “Grade 2 (classification and statistics of the grade of pesticide damage; number of plants)” value ([2]; mesotrione 105 g ai/ha) was 0 and the “Grade 3 (classification and statistics of the grade of pesticide damage; number of plants)” value ([2]; mesotrione 105 g ai/ha) was 16. For the same molecule, the “Classification and statistics of the grade of pesticide damage: Grade 0” value ([3]; topramezone 25 g ai/ha (1×)) was 0, the “Classification and statistics of the grade of pesticide damage: Grade 1” value ([3]; topramezone 25 g ai/ha (1×)) was 0 and the “Classification and statistics of the grade of pesticide damage: Grade 2” value ([3]; topramezone 25 g ai/ha (1×)) was 0. For the same molecule, the “Classification and statistics of the grade of pesticide damage: Grade 3” value ([3]; topramezone 25 g ai/ha (1×)) was 16, the “Classification and statistics of the grade of pesticide damage: Grade 0” value ([3]; topramezone 100 g ai/ha (4×)) was 0 and the “Classification and statistics of the grade of pesticide damage: Grade 1” value ([3]; topramezone 100 g ai/ha (4×)) was 0. The “Classification and statistics of the grade of pesticide damage: Grade 2” value ([3]; topramezone 100 g ai/ha (4×)) was 0, the “Classification and statistics of the grade of pesticide damage: Grade 3” value ([3]; topramezone 100 g ai/ha (4×)) was 16 and the Scores ([3]; topramezone 25 g ai/ha (1×)) was 100. For the same molecule, the Scores ([3]; topramezone 100 g ai/ha (4×)) was 100, the Resistance evaluation ([3]; topramezone 25 g ai/ha (1×)) was “non-resistant (non-resistant plants (scores 68-100))” and the Resistance evaluation ([3]; topramezone 100 g ai/ha (4×)) was “non-resistant (non-resistant plants (scores 68-100))”.
